The values that follow come from patent US20250188131A1 (ICOSAVAX, published 2025).

To fix the notation:
B1: RSV/B.099 (other)
chain: QNITEEFYQSTCSAVSRGYLSALRTGWYTSVITIELSNIKEVKCNGTDTKVKLIKQELDKYKNAVTELQLLMQNTPAVNNRARREAPQYMNYTINTTKNLNVSISKKRKRRFLGFLLGVGSAIASGIAVCKVLHLEGEVNKIKNALQLTNKAVVSLSNGVSVLTFRVLDLKNYINNQLLPMLNRQSCRISNIETVIEFQQKNSRLLEITREFSVNAGVTTPLSTYMLTNSELLSLINDMPITNDQKKLMSSNVQIVRQQSYSIMCIIKEEVLAYVVQLPIYGVIDTPCWKLHTSPLCTTNIKEGSNICLTRTDRGWYCDNAGSVSFFPQADTCKVQSNRVFCDTMNSLTLPSEVSLCNTDIFNSKYDCKIMTSKTDISSSVITSLGAIVSCYGKTKCTASNKNRGIIKTFSNGCDYVSNKGVDTVSVGNTLYYVNKLEGKNLYVKGEPIINYYDPLVFPSDRFDASISQVNEAINQSLAFIRRSDELLGSGGSGSGSGGSEKAAKAEEAARKMEELFKKHKIVAVLRANSVEEAIEKAVAVFAGGVHLIEITFTVPDADTVIKALSVLKEKGAIIGAGTVTSVEQARKAVESGAEFIVSPHLDEEISQFAKEKGVFYMPGVMTPTELVKAMKLGHTILKLFPGEVVGPQFVKAMKGPFPNVKFVPTGGVNLDNVAEWFKAGVLAVGVGSALVKGTPDEVREKAKAFVEKIRGATELEHHHHHH
B2: RSV/B.100 (other)
chain: QNITEEFYQSTCSAVSRGYLSALRTGWYTSVITIELSNIKEVKCNGTDTKVKLIKQELDKYKNAVTELQLLMQNTPAVNNRARREAPQYMNYTINTTKNLNVSISKKRKRRFLGFLLGVGSAIASGIAVCKVLHLEGEVNKIKNALQLTNKAVVSLSNGVSVLTFRVLDLKNYINNQLLPMLNRQSCRISNIETVIEFQQKNSRLLEITREFSVNAGVTTPLSPYMLTNSELLSLINDMPITNDQKKLMSSNVQIVRQQSYSIMCIIKEEVLAYVVQLPIYGVIDTPCWKLHTSPLCTTNIKEGSNICLTRTDRGWYCDNAGSVSFFPQADTCKVQSNRVFCDTMNSLTLPSEVSLCNTDIFNSKYDCKIMTSKTDISSSVITSLGAIVSCYGKTKCTASNKNRGIIKTFSNGCDYVSNKGVDTVSVGNTLYYVNKLEGKNLYVKGEPIINYYDPLVFPSDRFDASISQVNEAINQSLAFIRRSDELLGSGGSGSGSGGSEKAAKAEEAARKMEELFKKHKIVAVLRANSVEEAIEKAVAVFAGGVHLIEITFTVPDADTVIKALSVLKEKGAIIGAGTVTSVEQARKAVESGAEFIVSPHLDEEISQFAKEKGVFYMPGVMTPTELVKAMKLGHTILKLFPGEVVGPQFVKAMKGPFPNVKFVPTGGVNLDNVAEWFKAGVLAVGVGSALVKGTPDEVREKAKAFVEKIRGATELEHHHHHH
B3: RSV/B.081 (other)
chain: QNITEEFYQSTCSAVSRGYLSALRTGWYTSVITIELSNIKETKCNGTDTKVKLIKQELDKYKNAVTELQLLMQNTPAVNNRARREAPQYMNYTINTTKNLNVSISKKRKRRFLGFLLGVGSAIASGIAVCKVLHLEGEVNKIKNALQLTNKAVVSLSNGVSVLTFRVLDLKNYINNQLLPMLNRQSCRISNIETVIEFQQKNSRLLEITREFSVNAGVTTPLSTYMLTNSELLSLINDMPITNDQKKLMSSNVQIVRQQSYSIMCIIKEEVLAYVVQLPIYGVIDTPCWKLHTSPLCTTNIKEGSNICLTRTDRGWYCDNAGSVSFFPQADTCKVQSNRVFCDTMNSLTLPSEVSLCNTDIFNSKYDCKIMTSKDDISSSVITSLGAIVSCYGKTKCTASNKNRGIIKTFSNGCDYVSNKGVDTVSVGNTLYYVNKLEGKNLYVKGEPIINYYDPLVFPSARFAASISQVNEAINQSLAFIRRSDELLGSGGSGSGSGGSEKAAKAEEAARKMEELFKKHKIVAVLRANSVEEAIEKAVAVFAGGVHLIEITFTVPDADTVIKALSVLKEKGAIIGAGTVTSVEQARKAVESGAEFIVSPHLDEEISQFAKEKGVFYMPGVMTPTELVKAMKLGHTILKLFPGEVVGPQFVKAMKGPFPNVKFVPTGGVNLDNVAEWFKAGVLAVGVGSALVKGTPDEVREKAKAFVEKIRGATELEHHHHHH
B4: RSV/B.002 (other)
chain: QNITEEFYQSTCSAVSRGYLSALRTGWYTSVITIELSNIKETKCNGTDTKVKLIKQELDKYKNAVTELQLLMQNTPAVNNRARREAPQYMNYTINTTKNLNVSISKKRKRRFLGFLLGVGSAIASGIAVCKVLHLEGEVNKIKNALQLTNKAVVSLSNGVSVLTFRVLDLKNYINNQLLPMLNRQSCRISNIETVIEFQQKNSRLLEITREFSVNAGVTTPLSTYMLTNSELLSLINDMPITNDQKKLMSSNVQIVRQQSYSIMCIIKEEVLAYVVQLPIYGVIDTPCWKLHTSPLCTTNIKEGSNICLTRTDRGWYCDNAGSVSFFPQADTCKVQSNRVFCDTMNSLTLPSEVSLCNTDIFNSKYDCKIMTSKTDISSSVITSLGAIVSCYGKTKCTASNKNRGIIKTFSNGCDYVSNKGVDTVSVGNTLYYVNKLEGKNLYVKGEPIINYYDPLVFPSDEFDASISQVNEKINQSLAFIRRSDELLGSGGSGSGSGGSEKAAKAEEAARKMEELFKKHKIVAVLRANSVEEAIEKAVAVFAGGVHLIEITFTVPDADTVIKALSVLKEKGAIIGAGTVTSVEQARKAVESGAEFIVSPHLDEEISQFAKEKGVFYMPGVMTPTELVKAMKLGHTILKLFPGEVVGPQFVKAMKGPFPNVKFVPTGGVNLDNVAEWFKAGVLAVGVGSALVKGTPDEVREKAKAFVEKIRGATELEHHHHHH
notes: DS-Cav1 control; also called DS-Cav1 RSV/B.002
B5: RSV/B.123 (other)
chain: QNITEEFYQSTCSAVSRGYLSALRTGWYTSVITIELSNIKEVKCNGTDTKVKLIKQELDKYKNAVTELQLLMQNTPAVNNRARREAPQYMNYTINTTKNLNVSISKKRKRRFLGFLLGVGSAIASGIAVCKVLHLEGEVNKIKNALQLTNKAVVSLSNGVSVLTFRVLDLKNYINNQLLPMLNRQSCRISNIETVIEFQQKNSRLLEITREFSVNAGVTTPLSTYMLTNSELLSLINDMPITNDQKKLMSSNVQIVRQQSYSIMCIIKEEVLAYVVQLPIYGVIDTPCWKLHTSPLCTTNIKEGSNICLTRTDRGWYCDNAGSVSFFPQADTCKVQSNRVFCDTMNSLTLPSEVSLCNTDIFNSKYDCKIMTSKDDISSSVITSLGAIVSCYGKTKCTASNKNRGIIKTFSNGCDYVSNKGVDTVSVGNTLYYVNKLEGKNLYVKGEPIINYYDPLVFPSDRFAASISQVNEAINQSLAFIRRSDELLGSGGSGSGSGGSEKAAKAEEAARKMEELFKKHKIVAVLRANSVEEAIEKAVAVFAGGVHLIEITFTVPDADTVIKALSVLKEKGAIIGAGTVTSVEQARKAVESGAEFIVSPHLDEEISQFAKEKGVFYMPGVMTPTELVKAMKLGHTILKLFPGEVVGPQFVKAMKGPFPNVKFVPTGGVNLDNVAEWFKAGVLAVGVGSALVKGTPDEVREKAKAFVEKIRGATELEHHHHHH
B6: RSV/B.093 (other)
chain: QNITEEFYQSTCSAVSRGYLSALRTGWYTSVITIELSNIKETKCNGTDTKVKLIKQELDKYKNAVTELQLLMQNTPAVNNRARREAPQYMNYTINTTKNLNVSISKKRKRRFLGFLLGVGSAIASGIAVCKVLHLEGEVNKIKNALQLTNKAVVSLSNGVSVLTFRVLDLKNYINNQLLPMLNRQSCRISNIETVIEFQQKNSRLLEITREFSVNAGVTTPLSTYMLTNSELLSLINDMPITNDQKKLMSSNVQIVRQQSYSIMCIIKEEVLAYVVQLPIYGVIDTPCWKLHTSPLCTTNIKEGSNICLTRTDRGWYCDNAGSVSFFPQADTCKVQSNRVFCDTMNSLTLPSEVSLCNTDIFNSKYDCKIMTSKDDISSSVITSLGAIVSCYGKTKCTASNKNRGIIKTFSNGCDYVSNKGVDTVSVGNTLYYVNKLEGKNLYVKGEPIINYYDPLVFPSARWAASISQVNEAINQSLAFIRRSDELLGSGGSGSGSGGSEKAAKAEEAARKMEELFKKHKIVAVLRANSVEEAIEKAVAVFAGGVHLIEITFTVPDADTVIKALSVLKEKGAIIGAGTVTSVEQARKAVESGAEFIVSPHLDEEISQFAKEKGVFYMPGVMTPTELVKAMKLGHTILKLFPGEVVGPQFVKAMKGPFPNVKFVPTGGVNLDNVAEWFKAGVLAVGVGSALVKGTPDEVREKAKAFVEKIRGATELEHHHHHH
B7: RSV/B.171 (other)
chain: QNITEEFYQSTCSAVSRGYLSALRTGWYTSVITIELSNIKETKCNGTDTKVKLIKQELDKYKNAVTELQLLMQNTPAVNNRARREAPQYMNYTINTTKNLNVSISKKRKRRFLGFLLGVGSAIASGIAVCKVLHLEGEVNKIKNALQLTNKAVVSLSNGVSVLTFRVLDLKNYINNQLLPMLNRQSCRISNIETVIEFQQKNSRLLEITREFSVNAGVTTPLSTYMLTNSELLSLINDMPITNDQKKLMSSNVQIVRQQSYSIMCIIKEEVLAYVVQLPIYGVIDTPCWKLHTSPLCTTNIKEGSNICLTRTDRGWYCDNAGSVSFFPQADTCKVQSNRVFCDTMNSLTLPSEVSLCNTDIFNSKYDCKIMTSKDDISSSVITSLGAIVSCYGKTKCTASNKNRGIIKTFSNGCDYVSNKGVDTVSVGNTLYYVNKLEGKNLYVKGEPIINYYDPLVFPSDRFAASISQVNEAINQSREIIRAINIVRKIASEKGSGGSGSGSGGSEKAAKAEEAARKMEELFKKHKIVAVLRANSVEEAIEKAVAVFAGGVHLIEITFTVPDADTVIKALSVLKEKGAIIGAGTVTSVEQARKAVESGAEFIVSPHLDEEISQFAKEKGVFYMPGVMTPTELVKAMKLGHTILKLFPGEVVGPQFVKAMKGPFPNVKFVPTGGVNLDNVAEWFKAGVLAVGVGSALVKGTPDEVREKAKAFVEKIRGATELEHHHHHH

In this assay the target is T1, I53-50B.4PosT1.
T1 construct: also called second component; CompB
The experiment in a line: in vitro assembly with I53-50B, DLS. On the procedure: Selected constructs were incubated with a second component, I53-50B, to form nanostructures. Dynamic Light Scattering (DLS) and negative-stain electron microscopy (nsEM) confirm assembly as nanostructure. A representative electron micrograph is shown in FIG. 5 (RSV/B.195, having the DS-Cav).
Assembly: Molar concentrations for RSV/B or RSV/A trimers fused to I53-50AΔcys and I53-50B (second component, using the sequence of I53-50B.4PosT1, SEQ ID NO:46) were determined using UV-Vis spectroscopy. Absorbance values at 280 nm were collected and divided by calculated molar extinction coefficients (ExPASy). The assembly reaction to produce RSVB antigen-bearing nanostructures was performed in vitro with the addition of components as follows: RSV F trimers fused to I53-50AΔcys were added to PCR tubes in 1.5× molar excess of I53-50B, then assembly buffer (20 mM Tris pH 7.4, 250 mM NaCl, 4% sucrose) was added to the sample in PCR tubes, and finally I53-50B was added to the reaction to bring the assemblies to a final concentration of 7.5 μM and a final volume of 47.5 μL. The reaction was incubated at ambient temperature for ˜30 minutes with gentle rocking prior to subsequent measurement by dynamic light scattering (DLS). All constructs were assembly competent under the conditions tested. Prior to nsEM analysis or immunogenicity studies, assembled nanostructures were further purified by size exclusion chromatography over a Superose 6 Increase 10/300 GL column into 20 mM Tris pH 7.4, 250 mM NaCl, 4% sucrose.
Turning to B1, the binding result is “binds”.

With B2, the binding result was “binds”.

For the molecule B3, the binding result was “binds”.

For the molecule B4, the binding result is listed as “binds”.

In the case of B5, the binding result was “binds”.

Consider B6, for which the binding result is given as “binds”.

For B7, the binding result is on record as “binds”.
